The values that follow come from US20120294802A1 (published 2012).

First the molecules themselves.
T1: human Calcitonin Gene Related Peptide alpha (C-terminal amide (-NH2 printed after the last residue F; the filing words it as 'the N-terminal phenylalanine is amidated'); 125I radiolabeled in the receptor binding assay of Example 6)
T1 peptide: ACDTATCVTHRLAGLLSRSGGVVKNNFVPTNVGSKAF

B1: Antibody Ab3 (antibody)
heavy: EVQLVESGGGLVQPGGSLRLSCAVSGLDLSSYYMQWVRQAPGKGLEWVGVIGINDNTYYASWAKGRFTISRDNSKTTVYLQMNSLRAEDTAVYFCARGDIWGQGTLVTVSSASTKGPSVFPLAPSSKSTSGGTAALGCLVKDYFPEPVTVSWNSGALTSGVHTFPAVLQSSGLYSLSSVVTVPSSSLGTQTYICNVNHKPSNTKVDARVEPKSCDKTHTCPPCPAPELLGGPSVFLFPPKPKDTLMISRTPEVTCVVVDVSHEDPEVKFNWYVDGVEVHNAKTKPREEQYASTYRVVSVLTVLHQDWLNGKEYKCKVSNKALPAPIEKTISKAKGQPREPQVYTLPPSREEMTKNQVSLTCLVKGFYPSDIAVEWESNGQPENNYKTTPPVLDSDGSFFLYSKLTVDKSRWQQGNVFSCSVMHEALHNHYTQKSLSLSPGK
light: QVLTQSPSSLSASVGDRVTINCQASQSVYDNNYLAWYQQKPGKVPKQLIYSTSTLASGVPSRFSGSGSGTDFTLTISSLQPEDVATYYCLGSYDCSSGDCFVFGGGTKVEIKRTVAAPSVFIFPPSDEQLKSGTASVVCLLNNFYPREAKVQWKVDNALQSGNSQESVTEQDSKDSTYSLSSTLTLSKADYEKHKVYACEVTHQGLSSPVTKSFNRGEC
B2: Antibody Ab2 (antibody)
heavy: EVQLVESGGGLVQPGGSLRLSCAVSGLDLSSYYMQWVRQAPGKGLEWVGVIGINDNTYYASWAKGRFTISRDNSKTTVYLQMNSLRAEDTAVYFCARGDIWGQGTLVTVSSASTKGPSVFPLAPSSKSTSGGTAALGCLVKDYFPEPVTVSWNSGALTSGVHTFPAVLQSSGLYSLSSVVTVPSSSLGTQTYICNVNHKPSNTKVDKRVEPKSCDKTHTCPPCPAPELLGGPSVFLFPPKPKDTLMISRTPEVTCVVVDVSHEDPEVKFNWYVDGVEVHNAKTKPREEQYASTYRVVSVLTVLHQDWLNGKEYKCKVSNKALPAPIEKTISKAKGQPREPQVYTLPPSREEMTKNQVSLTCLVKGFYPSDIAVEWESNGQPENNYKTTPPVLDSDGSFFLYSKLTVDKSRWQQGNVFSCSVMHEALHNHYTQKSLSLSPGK
light: QVLTQSPSSLSASVGDRVTINCQASQSVYDNNYLAWYQQKPGKVPKQLIYSTSTLASGVPSRFSGSGSGTDFTLTISSLQPEDVATYYCLGSYDCSSGDCFVFGGGTKVEIKRTVAAPSVFIFPPSDEQLKSGTASVVCLLNNFYPREAKVQWKVDNALQSGNSQESVTEQDSKDSTYSLSSTLTLSKADYEKHKVYACEVTHQGLSSPVTKSFNRGEC
B3: Antibody Ab1 (antibody, V domains shown)
VH: QSLEESGGRLVTPGTPLTLTCTVSGLDLSSYYMQWVRQAPGKGLEWIGVIGINDNTYYASWAKGRFTISRASSTTVDLKMTSLTTEDTATYFCARGDIWGPGTLVTVSS
VL: QVLTQTASPVSAAVGSTVTINCQASQSVYDNNYLAWYQQKPGQPPKQLIYSTSTLASGVSSRFKGSGSGTQFTLTISDLECADAATYYCLGSYDCSSGDCFVFGGGTEVVVKR
B4: Antibody Ab4 (antibody, V domains shown)
VH: QSLEESGGRLVTPGTPLTLTCSVSGIDLSGYYMNWVRQAPGKGLEWIGVIGINGATYYASWAKGRFTISKTSSTTVDLKMTSLTTEDTATYFCARGDIWGPGTLVTVSS
VL: QVLTQTPSPVSAAVGSTVTINCQASQSVYHNTYLAWYQQKPGQPPKQLIYDASTLASGVPSRFSGSGSGTQFTLTISGVQCNDAAAYYCLGSYDCTNGDCFVFGGGTEVVVKR

The target of the assay is T1, human Calcitonin Gene Related Peptide …. In words: ELISA. On the technique in general: ELISA stands for enzyme-linked immunosorbent assay.
As usually defined, the EC50 is the concentration giving half of the maximal effect. Take B1: the EC50 came to 0.154 nM.
As for B2, the concentration giving a half-maximal response (EC50) turned out to be 0.083 nM.
As to B3, the EC50 came to 0.103 nM.
In the case of B4, the EC50 came out at 0.088 nM.
